In patent US20220177587A1, “METHODS AND USES OF VARIANT CD80 FUSION PROTEINS AND RELATED CONSTRUCTS” (Alpine Immune Sciences, Inc., priority 2018, published 2022):
Numbering of substitutions follows the chain as printed. In names and notes the source's numbering stands.

B1: E35D/M47V/N48K/V68M/K89N delta (protein)
chain: VIHVTKEVKEVATLSCGHNVSVEELAQTRIYWQKDKKMVLTMMSGDVKIWPEYKNRTIFDITNNLSIMILALRPSDEGTYECVVLKYENDAFKREHLAEVTLSVKTHTCPPCPAPEAEGAPSVFLFPPKPKDTLMISRTPEVTCVVVDVSHEDPEVKFNWYVDGVEVHNAKTKPREEQYNSTYRVVSVLTVLHQDWLNGKEYKCKVSNKALPAPIEKTISKAKGQPREPQVYTLPPSREEMTKNQVSLTCLVKGFYPSDIAVEWESNGQPENNYKTTPPVLDSDGSFFLYSKLTVDKSRWQQGNVFSCSVMHEALHNHYTQKSLSLSPG
B2: E35D/D46V/M47L/V68M/L85Q/E88D delta (protein)
chain: B1 chain with D46V, V47L, K48N, L85Q, E88D, N89K
B3: H18F/A26N/E35D/M47V/V68M/A71G/D90K (protein, UniProt P33681 35-288, looked up, variant H18F A26N E35D M47V V68M A71G D90K)
T-lymphocyte activation …: VIHVTKEVKEVATLSCGFNVSVEELNQTRIYWQKDKKMVLTMMSGDVNIWPEYKNRTIFDITNNLSIMILGLRPSDEGTYECVVLKYEKKAFKREHLAEVTLSVKADFPTPSISDFEIPTSNIRRIICSTSGGFPEPHLSWLENGEELNAINTTVSQDPETELYAVSSKLDFNMTTNHSFMCLIKYGHLRVNQTFNWNTTKQEHFPDNLLPSWAITLISVNGIFVICCLTYCFAPRCRERRRNERLRRESVRPV
B4: E35D/M47V/N48K/V68M/K89N EAAAK (protein, UniProt P33681 35-288, looked up, variant E35D M47V N48K V68M K89N)
T-lymphocyte activation …: B3 T-lymphocyte activation … with F18H, N26A, N48K, G71A, K89N, K90D
modifications: EAAAK linker
B5: E35D/D46V/M47L/V68M/L85Q/E88D (EAAAK)3 (protein, UniProt P33681 35-288, looked up, variant E35D D46V M47L V68M L85Q E88D)
T-lymphocyte activation …: B3 T-lymphocyte activation … with F18H, N26A, D46V, V47L, G71A, L85Q, E88D, K90D
modifications: (EAAAK)3 linker
B6: H18L, R29D, Y31L, Q33H, K36G, M38I, T41A, M43R, M47T, E81V, L85R, K89N, A91T, F92P, K93V, R94L, E99D, T130A (protein)
chain: VIHVTKEVKEVATLSCGLNVSVEELAQTDILWHKEGKIVLAMRSGDTNIWPEYKNRTIFDITNNLSIVILALRPSDEGTYVCVVRKYENDTPVLEHLADVTLSVKADFPTPSISDFEIPTSNIRRIICSASGGFPEPHLSWLENGEELNAINTTVSQDPETELYAVSSKLDFNMTTNHSFMCLIKYGHLRVNQTFNWNTTKQEHFPDN
B7: R29D, Y31L, Q33H, K36G, M38I, T41A, M43R, M47T, I61N, E81V, L85R, K89N, A91T, F92P, K93V, R94F, V104A, I118V, T120S, I126V, T130A (protein)
chain: B6 chain with L18H, I61N, L94F, D99E, V104A, I118V, T120S, I126V
B8: H18L, R29D, Y31L, Q33H, K36G, M38I, T41A, M43R, M47T, L70Q, E81V, L85R, K89N, A91T, F92P, K93V, R94L, I118V, T120S, T130A, K169E (protein)
chain: B6 chain with L70Q, D99E, I118V, T120S, K169E
B9: R29D, Y31L, Q33H, K36G, M38I, T41A, M43R, M47T, L70Q, E81V, L85R, K89N, A91T, F92P, K93I, R94L, L97R, T130A, L148S (protein)
chain: B6 chain with L18H, L70Q, V93I, L97R, D99E, L148S
B10: R29D, Y31L, Q33H, K36G, M38I, T41A, M43R, M47T, E81V, L85R, K89N, A91T, F92P, K93V, R94F, I118V, T120S, T130A (protein)
chain: B6 chain with L18H, L94F, D99E, I118V, T120S
B11: R29D, Y31L, Q33H, K36G, M38I, T41A, M43R, M47T, L70Q, E81V, L85R, K89N, A91T, F92P, K93I, R94L, L97R, T130A (protein)
chain: B6 chain with L18H, L70Q, V93I, L97R, D99E

Assays:
CD28 [1] = target: T1, CD28 (Homo sapiens, UniProt P10747); assay: Flow binding to Jurkat/IL2 reporter cells (CD28); set-up: host or cells: Jurkat cells expressing an IL-2-luciferase reporter
Method in brief: (§1)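 Flow cytometry on transfected CHO cells or CD28+ Jurkat/IL2 reporter cells, blocked 20 min in PBS/1% BSA/0.1% azide. Fusion protein 45 min on ice; PE anti-human Fc 1:150, 30 min on ice; fixed in 2% formaldehyde. Read-out PE MFI, EC50 calculated.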

huPD-L1 = huPD-L1 (Homo sapiens, UniProt Q9NZQ7); assay: Flow binding to CHO cells stably expressing PD-L1; set-up: huCTLA4 and huPD-L1, full-length mammalian surface expression constructs were generated; expressed in transfected cells; host or cells: CHO cells, lentiviral transduction, sorted to >98% purity; settings: for PD-L1 MFI at 33.3 nM: CHO cells stably expressing PD-L1; for Ratio of PDL1:CD28: ratio of MFI at 33.3 nM
Method in brief: as §1

CD28 [2] = target: T1, CD28; assay: Jurkat/IL2 + CHO/OKT3 +/- PD-L1 reporter assay: PD-L1-dependent CD28 costimulation; type: cell-based; set-up: host or cells: Jurkat cells expressing an IL-2-luciferase reporter; settings: 5.0 nM
Method in brief: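 Jurkat reporter cells (100,000/well) preincubated 15 min at room temperature with test protein, then cocultured 5 h at 37 °C with CHO aAPCs bearing anti-CD3 scFv (OKT3) with or without PD-L1. Luciferase luminescence (RLU) read after lysis-substrate addition.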

huCTLA4 = huCTLA4 (Homo sapiens, UniProt P16410); assay: Flow binding to CHO cells stably expressing CTLA4; set-up: huCTLA4 and huPD-L1, full-length mammalian surface expression constructs were generated; expressed in transfected cells; host or cells: CHO cells, lentiviral transduction, sorted to >98% purity; settings: for CTLA4 MFI at 33.3 nM: CHO cells stably expressing CTLA4
Method in brief: as §1

human pan T cells = assay: Anti-CD3 coimmobilization assay, IFN-gamma; type: cell-based; settings: Table E34; culture supernatant, 3 days
Experimental: Costimulatory bioactivity of CD80 fusion variants was determined in anti-CD3 coimmobilization assays. 1 nM or 4 nM mouse anti-human CD3 (OKT3, Biolegends, USA) was diluted in PBS with 1 nM to 80 nM rCD80.Fc variant proteins. This mixture was added to tissue culture treated flat bottom 96-well plates (Corning, USA) overnight to facilitate adherence of the stimulatory proteins to the wells of the plate. The next day, unbound protein was washed off the plates and 100,000 purified human pan T cells (BenTech Bio, US) or human T cell clone BC3 (Astarte Biologics, USA) were added to each well in a final volume of 200 μl of Ex-Vivo 15 media (Lonza, Switzerland). Cells were cultured 3 days before harvesting culture supernatants and measuring human IFN-gamma levels with Duoset ELISA kit (R&D Systems, USA) as described above.

[3] = Table E25, linker variants, 33.3 nM, Jurkats (CD28)
[4] = Table E25, linker variants, 33.3 nM
[5] = Table E26, linker variants, Jurkat/IL2 + CHO/OKT3/PD-L1
[6] = Table E23, MFI at 33.3 nM relative to CD80 WT IgV-Fc
[7] = Table E23, CD80 IgV-Fc (inert) at 33.3 nM
[8] = Table E24, Jurkat/IL2 + CHO/OKT3/PD-L1
[9] = Table E25, linker variants, relative to CD80 WT IgV-Fc

Chain of huPD-L1 (Q9NZQ7 19-290): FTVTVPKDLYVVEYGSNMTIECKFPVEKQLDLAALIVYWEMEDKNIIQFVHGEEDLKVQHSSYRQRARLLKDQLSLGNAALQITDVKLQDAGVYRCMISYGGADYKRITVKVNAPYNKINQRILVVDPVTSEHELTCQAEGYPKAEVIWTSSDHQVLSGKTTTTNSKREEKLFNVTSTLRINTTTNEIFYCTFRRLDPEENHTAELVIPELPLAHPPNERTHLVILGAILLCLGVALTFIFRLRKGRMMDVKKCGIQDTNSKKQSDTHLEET
Chain of huCTLA4 (P16410 36-223): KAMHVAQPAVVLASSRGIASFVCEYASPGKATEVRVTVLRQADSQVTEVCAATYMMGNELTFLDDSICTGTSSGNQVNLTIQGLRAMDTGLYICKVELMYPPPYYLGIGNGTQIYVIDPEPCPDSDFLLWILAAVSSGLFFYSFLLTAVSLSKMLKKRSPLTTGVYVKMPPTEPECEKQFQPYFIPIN

Row | Molecule | CD28 MFI at 33.3 nM (CD28 [1]; [3]) | PD-L1 MFI at 33.3 nM (huPD-L1; [4]) | Ratio of PDL1:CD28 (huPD-L1; Table E25, linker variants) | Fold Increase over WT CD80-IgV-Fe (CD28 [2]; Table E26, linker variants) | Relative Luciferase Units (RLU), CD80 Conc 5.0 nM (CD28 [2]; [5]) | CTLA4 MFI at 33.3 nM (huCTLA4; [4]) | Anti-CD3 IFN-gamma Coimmobilization Assay (human pan T cells) | other results
1 | B1 | 4678 | 20442 | 4 | 2.63 | 1026 RLU | 3091 | – | –
2 | B2 | 4173 | 22538 | 5 | 2.77 | 1079 RLU | 12177 | – | –
3 | B3 | – | – | – | – | – | – | – | CD28 MFI at 33.3 nM (CD28 [1]; Table E23, CD80 IgV-Fc (inert) at 33.3 nM, Jurkat (CD28)): 3170; CD28 Fold change to WT CD80 (CD28 [1]; [6]): 31.1; PD-L1 MFI at 33.3 nM (huPD-L1; [7]): 22395; PD-L1 Fold change to WT CD80 (huPD-L1; [6]): 135.7; Ratio of PDL1:CD28 (huPD-L1; Table E23): 7.1; Fold Increase over WT CD80-IgV-Fe (CD28 [2]; [8]): 5.4; Relative Luciferase Units (RLU), CD80 Conc 5.0 nM (CD28 [2]; [8]): 919 RLU; CTLA4 MFI at 33.3 nM (huCTLA4; [7]): 15206; CTLA4 Fold change to WT CD80 (huCTLA4; [6]): 11.0
4 | B4 | 2634 | 22862 | 9 | 4.38 | 1707 RLU | 27516 | – | CD28 Fold change to WT CD80 (CD28 [1]; [9]): 47.1; PD-L1 Fold change to WT CD80 (huPD-L1; [9]): 490.6; CTLA4 Fold change to WT CD80 (huCTLA4; [9]): 23.0
5 | B5 | 197 | 25461 | 129 | 5.25 | 2046 RLU | 32048 | – | CD28 Fold change to WT CD80 (CD28 [1]; [9]): 3.5; PD-L1 Fold change to WT CD80 (huPD-L1; [9]): 546.4; CTLA4 Fold change to WT CD80 (huCTLA4; [9]): 26.8
6 | B6 | – | – | – | – | – | – | 174 pg/mL | –
7 | B7 | – | – | – | – | – | – | 288 pg/mL | –
8 | B8 | – | – | – | – | – | – | 232 pg/mL | –
9 | B9 | – | – | – | – | – | – | 101 pg/mL | –
10 | B10 | – | – | – | – | – | – | 111 pg/mL | –
11 | B11 | – | – | – | – | – | – | 202 pg/mL | –
